# From article PMC11472156, “Synergistic regulation of fusion pore opening and dilation by SNARE and synaptotagmin-1” (Journal of Molecular Cell Biology, 2024)
# Changes are numbered by the printed parent chain. Numbers in names are those of the source.
# B1: Syt1 C2B domain-containing C2AB fragment, C2AB (A418C), Cy5-labeled (domain or fragment)
# chain: KLGKLQYSLDYDFQNNQLLVGIIQAAELPALDMGGTSDPYVKVFLLPDKKKKFETKVHRKTLNPVFNEQFTFKVPYSELGGKTLVMAVYDFDRFSKHDIIGEFKVPMNTVDFGHVTEEWRDLQSAEKEEQEKLGDICFSLRYVPTAGKLTVVILEAKNLKKMDVGGLSDPYVKIHLMQNGKRLKKKKTTIKKNTLNPYYNESFSFEVPFEQIQKVQVVVTVLDYDKIGKNDAIGKVFVGYNSTGAELRHWSDMLANPRRPIAQWHTLQVEEEVDAMLCVKK
# modifications: Sulfo-Cy5 maleimide label (labeling efficiency 34.5%-42%)
# B2: C2AB_F349A (A418C), Cy5-labeled (domain or fragment)
# chain: B1 chain with F209A
# modifications: Sulfo-Cy5 maleimide label (labeling efficiency 34.5%-42%)
# Target: the molecule itself
# Test: single-molecule fluorescence photobleaching step counting; 40 pM Cy5-labeled C2AB incubated 30 min at room temperature on a DiI-labeled supported lipid bilayer (15% DOPS, with or without 1% PIP2), no Ca2+; unbound protein removed; photobleaching steps per fluorescent spot fitted to a Poisson distribution and corrected for unlabeled fragments; printed numbers are with 1% PIP2
row,Protein,stoichiometry N
1,B1,6.85 molecules
2,B2,3.03 molecules
